Results published in patent US20240352434, “COMPOSITIONS COMPRISING A VARIANT CAS12I3 POLYPEPTIDE AND USES THEREOF” (Arbor Biotechnologies, Inc., published 2024).

T1: Cas12i3 S559R (Unidentified, S559R)
T1 chain: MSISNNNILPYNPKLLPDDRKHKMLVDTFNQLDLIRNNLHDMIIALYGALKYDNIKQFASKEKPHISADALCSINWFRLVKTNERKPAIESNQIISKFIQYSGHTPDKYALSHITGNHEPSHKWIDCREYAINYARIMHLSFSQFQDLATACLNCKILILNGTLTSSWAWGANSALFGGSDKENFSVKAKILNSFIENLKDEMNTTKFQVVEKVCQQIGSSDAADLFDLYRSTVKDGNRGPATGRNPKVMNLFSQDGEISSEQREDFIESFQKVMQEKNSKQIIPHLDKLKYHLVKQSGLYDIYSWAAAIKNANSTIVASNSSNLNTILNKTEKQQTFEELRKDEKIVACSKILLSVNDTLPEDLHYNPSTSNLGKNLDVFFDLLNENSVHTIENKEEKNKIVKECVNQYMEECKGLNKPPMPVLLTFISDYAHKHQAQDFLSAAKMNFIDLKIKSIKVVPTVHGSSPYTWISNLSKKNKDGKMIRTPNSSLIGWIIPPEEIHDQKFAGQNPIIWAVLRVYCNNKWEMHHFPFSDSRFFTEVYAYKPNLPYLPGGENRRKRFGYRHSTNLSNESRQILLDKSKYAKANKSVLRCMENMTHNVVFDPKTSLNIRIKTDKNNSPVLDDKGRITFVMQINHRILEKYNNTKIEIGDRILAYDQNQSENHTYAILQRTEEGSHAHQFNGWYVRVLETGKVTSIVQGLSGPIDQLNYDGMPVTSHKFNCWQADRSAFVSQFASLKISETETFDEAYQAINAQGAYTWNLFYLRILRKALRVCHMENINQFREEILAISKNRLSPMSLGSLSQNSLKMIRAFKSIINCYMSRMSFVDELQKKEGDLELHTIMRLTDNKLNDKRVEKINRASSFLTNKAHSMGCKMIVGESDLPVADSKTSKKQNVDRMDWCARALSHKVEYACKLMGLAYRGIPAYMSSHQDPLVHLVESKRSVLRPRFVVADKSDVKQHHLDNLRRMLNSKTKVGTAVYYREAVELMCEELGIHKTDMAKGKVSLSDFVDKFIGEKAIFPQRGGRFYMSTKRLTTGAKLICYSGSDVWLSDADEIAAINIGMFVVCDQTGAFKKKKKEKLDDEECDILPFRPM

T2: Cas12i3 S536R K583R N711R C724R (Unidentified, S536R,K583R,N711R,C724R)
T2 chain: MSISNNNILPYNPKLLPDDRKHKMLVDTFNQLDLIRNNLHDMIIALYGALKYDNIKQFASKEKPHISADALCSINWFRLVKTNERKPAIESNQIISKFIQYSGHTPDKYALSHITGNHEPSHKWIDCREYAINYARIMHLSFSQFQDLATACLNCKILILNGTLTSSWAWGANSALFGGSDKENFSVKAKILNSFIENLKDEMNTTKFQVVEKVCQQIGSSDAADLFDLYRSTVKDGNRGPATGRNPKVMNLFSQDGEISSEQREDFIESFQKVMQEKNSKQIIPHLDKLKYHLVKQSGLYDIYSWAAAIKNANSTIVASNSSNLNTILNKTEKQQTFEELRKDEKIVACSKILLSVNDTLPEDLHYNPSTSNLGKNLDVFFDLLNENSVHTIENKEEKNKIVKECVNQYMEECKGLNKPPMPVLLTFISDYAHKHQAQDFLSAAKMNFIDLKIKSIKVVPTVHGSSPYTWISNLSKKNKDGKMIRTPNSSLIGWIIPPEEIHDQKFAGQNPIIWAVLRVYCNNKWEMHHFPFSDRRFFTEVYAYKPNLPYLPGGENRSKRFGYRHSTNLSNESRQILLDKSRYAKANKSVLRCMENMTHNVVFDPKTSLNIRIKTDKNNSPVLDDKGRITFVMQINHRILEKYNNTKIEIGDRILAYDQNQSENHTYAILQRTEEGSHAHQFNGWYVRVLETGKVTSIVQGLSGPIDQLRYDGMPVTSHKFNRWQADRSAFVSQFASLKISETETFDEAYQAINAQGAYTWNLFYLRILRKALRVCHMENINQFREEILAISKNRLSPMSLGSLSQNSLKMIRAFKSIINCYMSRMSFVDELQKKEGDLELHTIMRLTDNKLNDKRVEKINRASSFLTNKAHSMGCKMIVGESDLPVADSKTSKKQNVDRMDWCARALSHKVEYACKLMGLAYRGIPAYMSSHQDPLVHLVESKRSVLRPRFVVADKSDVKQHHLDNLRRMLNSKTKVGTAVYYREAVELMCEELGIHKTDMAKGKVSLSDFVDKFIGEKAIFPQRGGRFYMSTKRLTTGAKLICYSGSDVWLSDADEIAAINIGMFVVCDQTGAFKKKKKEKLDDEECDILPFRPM


Assays:
[1] = target: T1, Cas12i3 S559R; assay: cell_activity; fold change in % indels, HEK293T; PAM not stated in example
Protocol: (§1) Approximately 16 hours prior to transfection, 100 μl of 25,000 HEK293T cells in DMEM/10% FBS+Pen/Strep were plated into each well of a 96-well plate. On the day of transfection, the cells were 70-90% confluent. For each well to be transfected, a mixture of 0.5 μl of Lipofectamine 2000 and 9.5 μl of Opti-MEM was prepared and then incubated at room temperature for 5-20 minutes (Solution 1). […] In the case of negative controls, the crRNA was not included in Solution 2. The solution 1 and solution 2 mixtures were mixed by pipetting up and down and then incubated at room temperature for 25 minutes. Following incubation, 20 μL of the Solution 1 and Solution 2 mixture were added dropwise to each well of a 96 well plate containing the cells. 72 hours post transfection, cells are trypsinized by adding 10 μL of TrypLE to the center of each well and incubated for approximately 5 minutes. 100 μL of D10 media was then added to each well and mixed to resuspend cells. The cells were then spun down at 500 g for 10 minutes, and the supernatant was discarded. QuickExtract buffer was added to ⅕ the amount of the original cell suspension volume. Cells were incubated at 65° C. for 15 minutes, 68° C. for 15 minutes, and 98° C. for 10 minutes.
(§2) Samples for Next Generation Sequencing were prepared by two rounds of PCR. The first round (PCR1) was used to amplify specific genomic regions depending on the target. PCR1 products were purified by column purification. Round 2 PCR (PCR2) was done to add Illumina adapters and indexes. Reactions were then pooled and purified by column purification. Sequencing runs were done with a 150 cycle NextSeq v2.5 mid or high output kit.

[2] = target: T2, Cas12i3 S536R K583R N711R C724R; assay: as above
Protocol: as §1, §2

Binder | binding signal [1] | binding signal [2]
VEGFA_T2 crRNA ; VEGFA_T2 target (ssRNA ; dsDNA) RNA: AUAGUGUGUCCUUAGUUGACAUAAUCCUCCACCAGUCAUGGU DNA 1: AATCCTCCACCAGTCATGGT DNA 2: ACCATGACTGGTGGAGGATT | 1.17 fold of wild-type | 1.1 fold of wild-type
EMX1_T5 crRNA ; EMX1_T5 target (ssRNA ; dsDNA) RNA: AUAGUGUGUCCUUAGUUGACAUUAUUAUUCCCAUAGGGAAGG DNA 1: TATTATTCCCATAGGGAAGG DNA 2: CCTTCCCTATGGGAATAATA | 0.95 fold of wild-type | 0.72 fold of wild-type
AAVS1_T3 crRNA ; AAVS1_T3 target (ssRNA ; dsDNA) RNA: AUAGUGUGUCCUUAGUUGACAUGUGAGAAUGGUGCGUCCUAG DNA 1: GTGAGAATGGTGCGTCCTAG DNA 2: CTAGGACGCACCATTCTCAC | 1.28 fold of wild-type | 0.8 fold of wild-type
